Target: Full-length human His6-Kif15 (human) (UniProt Q9NS87)
Experiment: glycerol gradient ultracentrifugation; 2.5 µM hTpx2 (dimer) + 80 nM hKif15 (tetramer), 5-40% glycerol gradient in 35 mM sodium phosphate buffer

Sequence of Full-length human His6-Kif15 (human) (Q9NS87 whole entry): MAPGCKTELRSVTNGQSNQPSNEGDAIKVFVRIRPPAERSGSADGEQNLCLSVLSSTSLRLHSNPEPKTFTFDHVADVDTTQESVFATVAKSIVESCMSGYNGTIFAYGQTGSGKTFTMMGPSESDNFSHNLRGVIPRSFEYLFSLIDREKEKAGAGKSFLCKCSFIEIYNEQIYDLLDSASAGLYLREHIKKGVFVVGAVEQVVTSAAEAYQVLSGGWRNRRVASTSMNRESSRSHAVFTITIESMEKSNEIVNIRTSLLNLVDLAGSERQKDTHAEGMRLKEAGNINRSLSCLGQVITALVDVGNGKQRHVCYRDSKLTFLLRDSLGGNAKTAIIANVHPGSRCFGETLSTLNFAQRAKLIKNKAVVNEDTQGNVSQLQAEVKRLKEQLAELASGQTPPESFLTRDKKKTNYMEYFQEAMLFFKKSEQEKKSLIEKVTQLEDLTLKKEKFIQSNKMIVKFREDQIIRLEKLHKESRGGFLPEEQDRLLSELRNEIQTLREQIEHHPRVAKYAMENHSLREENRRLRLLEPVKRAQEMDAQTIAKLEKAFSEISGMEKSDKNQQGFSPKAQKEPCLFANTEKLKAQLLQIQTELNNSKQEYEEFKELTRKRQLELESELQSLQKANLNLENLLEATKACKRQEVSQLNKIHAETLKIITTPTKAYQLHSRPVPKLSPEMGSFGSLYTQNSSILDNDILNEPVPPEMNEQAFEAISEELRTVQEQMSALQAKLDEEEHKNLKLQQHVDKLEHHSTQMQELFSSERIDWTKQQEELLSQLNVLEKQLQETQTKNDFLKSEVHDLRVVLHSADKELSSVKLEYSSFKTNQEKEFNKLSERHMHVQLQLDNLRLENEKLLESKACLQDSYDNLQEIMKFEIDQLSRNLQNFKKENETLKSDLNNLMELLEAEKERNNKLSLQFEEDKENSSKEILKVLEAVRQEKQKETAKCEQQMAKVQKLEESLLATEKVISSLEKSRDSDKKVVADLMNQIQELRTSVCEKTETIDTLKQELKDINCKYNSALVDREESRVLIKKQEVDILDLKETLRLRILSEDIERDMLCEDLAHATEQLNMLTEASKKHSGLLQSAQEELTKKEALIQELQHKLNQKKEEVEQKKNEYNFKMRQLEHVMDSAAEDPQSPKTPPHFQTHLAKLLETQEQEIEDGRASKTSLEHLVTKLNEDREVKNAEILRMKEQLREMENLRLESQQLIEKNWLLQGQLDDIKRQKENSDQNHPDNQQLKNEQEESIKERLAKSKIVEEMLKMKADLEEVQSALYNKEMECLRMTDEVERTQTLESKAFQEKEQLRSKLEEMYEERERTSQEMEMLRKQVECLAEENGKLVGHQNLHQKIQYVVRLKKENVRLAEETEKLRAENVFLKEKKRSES

- fraction of the provided hKif15 in the complex: 0.33
Substance: human His6-Tpx2 (from UniProt Q9ULW0 1-747) (natural protein)

Reference: publication PMC3965211
